In PMC9519967 (2022):

Assays:
Experiment in all cases: MST
[1] = target: Sos-C-Tail-5 truncated peptide (without GST) (UniProt Q07889)
[2] = target: Sos-C-Tail-6 truncated peptide (without GST) (UniProt Q07889)
[3] = target: Sos-C-Tail-8 truncated peptide (without GST) (UniProt Q07889)

B1: His-tagged Grb3-3 N-terminal SH3 and SH2 domain (NSH3SH2Δ40) (domain or fragment)
chain: MEAIAKYDFKATADDELSFKRGDILKVLNEECDQNWYKAELNGKDGFIPKNYIEMKPHPFGNDVQHFKVLRDGAGKYFLWVVKFNSLNELVDYHRSTSVSRNQQIFLRDIE
modifications: Atto488 NHS ester label, 1:1 protein:dye
B1 showed a Kd [1] of 2.36 µM, a Kd [2] of 3.41 µM and a Kd [3] of 71.1 µM.
